Laboratory results reported in publication PMC9822992, “Conformational plasticity of NaK2K and TREK2 potassium channel selectivity filters” (Nature Communications, 2023).
Where a chain is given by its changes, count along the chain named. In names and notes the source's numbering stands.

B1: tandem dimeric NaK Δ19 T73C (other)
chain: KDKEFQVLFVLTILTLISGTIFYSTVEGLRPIDALYFSVVTLTTVGDGNFSPQCDFGKIFTILYIFIGIGLVFGFIHKLAVNVQLPSILSNRKKEGGGSGGGSKDKEFQVLFVLTILTLISGTIFYSTVEGLRPIDALYFSVVTLTTVGDGNFSPQTDFGKIFTILYIFIGIGLVFGFIHKLAVNVQLPSILSNRKKE
modifications: Alexa Fluor 555 or Alexa Fluor 647 c2 maleimide on T73C
notes: NaK (Na+- and K+-conducting) channel from Bacillus cereus, Δ19 construct, first subunit (S1) of the tandem, carries T73C; linker between the two copies; NaK channel from Bacillus cereus, Δ19 construct, second subunit of the tandem, without cysteine; pET28a; Two tandem dimers form the tetrameric channel; whether a His8 also follows the first copy inside the tandem is not clear; also called NaK …
B2: tandem dimeric NaK2K Δ19 T73C (other)
chain: B1 chain with D47Y, N49D, D150Y, N152D
modifications: Alexa Fluor 555 or Alexa Fluor 647 c2 maleimide on T73C
notes: NaK channel from Bacillus cereus, Δ19 construct, NaK2K mutant (selectivity filter TVGDGN changed to TVGYGD), first subunit (S1) of the tandem, carries T73C; positions 63-68 are worked out from the printed Asn68; linker between the two copies; NaK channel from Bacillus cereus, Δ19 construct, NaK2K mutant (TVGDGN changed to TVGYGD), second subunit of the tandem, without cysteine; pET28a; Two tandem …
B3: monomeric NaK Δ19 T73C (with F92A) (other)
chain: KDKEFQVLFVLTILTLISGTIFYSTVEGLRPIDALYFSVVTLTTVGDGNFSPQCDFGKIFTILYIFIGIGLVAGFIHKLAVNVQLPSILSNRKKE
notes: NaK channel from Bacillus cereus, Δ19 construct, monomeric; In the cross-linking experiment T73C was reacted with bis-maleimide PEG (Bis-Mal-dPEG3, 3 nm, or Bis-Mal-dPEG11, 6 nm); also called NaK T73C; not shown: His8, C-terminal, kept
B4: monomeric NaK2K Δ19 T73C (with F92A) (other)
chain: B3 chain with D47Y, N49D
notes: NaK channel from Bacillus cereus, Δ19 construct, NaK2K mutant (TVGDGN changed to TVGYGD), monomeric; positions 63-68 are worked out from the printed Asn68; Channels 'formed as tetramers of monomeric, not tandem dimeric, constructs'; In the cross-linking experiment T73C was reacted with bis-maleimide PEG (3 nm or 6 nm); also called NaK2K T73C; not shown: His8, C-terminal, kept

Assays:
[1] = molecular target: cysteine-less TREK2 S105C (Gly67 to Glu340); assay: SEC; Superdex-200 10/300, 20 mM Tris, 150 mM KCl, 2 mM DDM, pH 8, 4 °C; oligomer fractions of labelled TREK2 collected
[2] = molecular target: the molecule itself; assay: SEC; Superdex-200 10/300, 20 mM Hepes, 150 mM KCl, 5 mM DM, pH 7.5, 4 °C; tetrameric fractions pooled (again after fluorophore labelling)

Molecule	binding result [2]	stoichiometry N [2]	further results
cysteine-less TREK2 S105C (Gly67 to Glu340)	–	–	stoichiometry N [1]: 2
B1	binds	–	–
B2	binds	–	–
B3	–	4	–
B4	–	4	–
